Measured values published in PMC10684826.
Like-named read-outs stand apart in the source and are kept apart here.

How the values were obtained:
Test in all cases: EMSA
[1] = target: T1, SisSSB deltaC29 (Saccharolobus islandicus REY15A, UniProt F0NBA9 1-119)
T1 sequence: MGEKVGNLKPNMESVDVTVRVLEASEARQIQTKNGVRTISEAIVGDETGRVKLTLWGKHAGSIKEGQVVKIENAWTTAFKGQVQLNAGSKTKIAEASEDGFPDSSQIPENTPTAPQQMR

[2] = target: T2, SisSSB deltaC53 (Saccharolobus islandicus REY15A, UniProt F0NBA9 1-95)
T2 sequence: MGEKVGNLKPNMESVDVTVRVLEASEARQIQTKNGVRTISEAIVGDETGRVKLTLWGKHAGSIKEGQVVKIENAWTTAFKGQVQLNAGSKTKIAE

[3] = target: T3, AhoSSB (Acidianus hospitalis W1, UniProt F4B912 1-142)
T3 sequence: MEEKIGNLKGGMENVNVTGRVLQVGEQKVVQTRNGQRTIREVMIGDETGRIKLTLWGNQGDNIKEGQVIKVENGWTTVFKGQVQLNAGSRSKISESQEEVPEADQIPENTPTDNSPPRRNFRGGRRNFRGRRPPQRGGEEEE

[4] = target: EcoSSB (Escherichia coli, UniProt P0AGE0 1-178)
[5] = target: T4, SheSSB (Staphylothermus hellenicus DSM 12710, UniProt D7D8N7 1-151)
T4 sequence: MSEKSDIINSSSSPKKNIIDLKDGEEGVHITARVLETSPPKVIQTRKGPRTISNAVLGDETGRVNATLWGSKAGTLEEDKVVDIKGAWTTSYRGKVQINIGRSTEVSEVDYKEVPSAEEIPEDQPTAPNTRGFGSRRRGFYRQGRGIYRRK

[6] = target: T5, SacSSB (Sulfolobus acidocaldarius DSM 639, UniProt Q4JA43 1-146)
T5 sequence: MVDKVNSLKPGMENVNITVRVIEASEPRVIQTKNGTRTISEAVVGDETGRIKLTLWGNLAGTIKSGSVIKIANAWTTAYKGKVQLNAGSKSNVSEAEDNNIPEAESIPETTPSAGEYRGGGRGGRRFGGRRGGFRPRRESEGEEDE

[7] = target: T3, AhoSSB; remark: listed apart in the source
[8] = target: T4, SheSSB; remark: listed apart in the source
[9] = target: T5, SacSSB; remark: listed apart in the source

Measured: binding result

EcoSSB, sequence (P0AGE0 whole entry): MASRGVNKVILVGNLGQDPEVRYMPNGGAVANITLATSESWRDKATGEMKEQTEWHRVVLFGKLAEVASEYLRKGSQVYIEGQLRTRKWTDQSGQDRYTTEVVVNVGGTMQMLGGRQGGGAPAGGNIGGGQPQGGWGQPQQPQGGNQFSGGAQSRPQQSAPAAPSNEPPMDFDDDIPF

AGGGTTCTTTGTGGCGGCGTCATCTGTGCTTCCCTATCCA (ssDNA) [Fam-ssDNA 40 nt]
not listed: [7] | [8] | [9]
binds: all other assays above

AGGGUUCUUUGUGGCGGCGUCAUCUGUGCUUCCCUAUCCA (ssRNA) [Fam-ssRNA 40 nt]
binds: [7] | [8] | [9] | [1] | [2]
